Patent US20120015885A1 (published 2012)
Blank lines part the entries; values can stand above or below the binder they belong to.

Legend:
[1] = target: calcium/calmodulin (CaM)-dependent protein kinase II (CaMKII) (UniProt P11275 1-478); test: cell-based or functional assay
CaMKI = test: cell-based or functional assay
[2] = target: 2-chloro-(ε-amino-Lys75)-[6-(4-N,N-diethylaminophenyl)-1,3,5-triazin-4-yl]calmodulin (TA-CaM) (UniProt P0DP23 2-149); test: competition with CBD for TA-CaM, fluorescence
biotinylated CaM = biotinylated CaM (UniProt P0DP23 2-149); test: slot blot with biotinylated CaM (FIG. 9E) and TA-CaM competition (FIG. 9G)

calcium/calmodulin (CaM)-dependent protein kinase II (CaMKII), sequence (P11275 whole entry): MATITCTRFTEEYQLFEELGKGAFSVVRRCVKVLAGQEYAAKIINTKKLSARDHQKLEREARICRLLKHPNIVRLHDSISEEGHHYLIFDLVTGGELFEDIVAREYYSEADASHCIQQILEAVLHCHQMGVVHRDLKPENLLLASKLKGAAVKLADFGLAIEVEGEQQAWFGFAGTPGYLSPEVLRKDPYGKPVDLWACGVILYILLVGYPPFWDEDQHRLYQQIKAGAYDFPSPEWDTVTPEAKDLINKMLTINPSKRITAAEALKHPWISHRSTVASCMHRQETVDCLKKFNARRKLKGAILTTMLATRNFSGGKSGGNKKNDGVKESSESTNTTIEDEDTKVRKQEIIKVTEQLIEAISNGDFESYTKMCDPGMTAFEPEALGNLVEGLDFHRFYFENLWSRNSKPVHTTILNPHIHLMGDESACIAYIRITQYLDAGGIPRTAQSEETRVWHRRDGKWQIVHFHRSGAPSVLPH

Binder: KRAPKLGQIGRQKAVVIED [V12Q mutant of CN19a2v]
IC50, CaMKII activity [1]: ~1 nM

Binder: KRPPKLGQIGRSKRVVIED [CN19]
IC50, CaMKI activity (CaMKI): ~36000 nM
IC50, phosphorylation of syntide 2 by CaMKII [1]: ~100 nM

Binder: KRAPKLGQIGRVKAVVIED [CN19a2v]
IC50, CaMKI activity (CaMKI): ~18000 nM
IC50, CaMKII activity towards syntide 2 [1]: ~20 nM
fold increase of potency against CN19 [1]: ~5 fold

Binder: KRAPKLGQIGRVKAVDIED [V16D mutant of CN19a2v]
IC50, CaMKII activity [1]: ~1 nM

Binder: KRPPKLGQIGRSKAVVIED [CN19 R14A]
IC50, CaMKII activity [1]: < 10 nM
fold increase of potency against CN19 wild type [1]: > 10 fold

Continued, values first:

IC50, CaMKI activity (CaMKI): ~38000 nM
IC50, CaMKII activity [1]: ~0.75 nM
fold increase of potency against CN19 [1]: > 125 fold
selectivity for CaMKII vs CaMKI [1]: ~50000 fold
Binder: KRAPKLGQIGRQKAVDIED [CN19o]

Kd [2]: ~1 nM
B1: antCN27 (peptide)
peptide: RQIKIWFQNRRMKWKKRPPKLGQIGRSKRVVIEDDRIDDVLK
notes: a final (K) of ant was replaced by the first K of the CN peptide in the fusion

Kd [2]: ~5 nM
B2: ant (peptide)
peptide: RQIKIWFQNRRMKWK
notes: whether the free peptide had it is not clear; also called ant peptide; penetratin

IC50, phosphorylation of syntide 2 by CaMKII [1]: ~100 nM
Binder: KRPPKLGQIGRSKRVVIEDDR [CN21]

binding result (biotinylated CaM): no binding
Binder: KRPPKLGQIGRSKRVVIEDDRIDDVLK (also called CaM-KIINtide) [CN27]

IC50, phosphorylation of syntide 2 by CaMKII [1]: ~100 nM
Binder: KRPPKLGQIGRSKRVVIEDD [CN20]
